{"source": "patent US20260242735A1", "test_in_all_cases": "alanine scan, flow cytometry", "key": {"human CD33 A269S (human)": {"molecular_target": "human CD33 A269S (human) (UniProt P20138)"}, "human CD33 P203A (human)": {"molecular_target": "human CD33 P203A (human) (UniProt P20138)"}, "human CD33 Q236A (human)": {"molecular_target": "human CD33 Q236A (human) (UniProt P20138)", "sequence (P20138 18-364 Q236A limits assumed)": "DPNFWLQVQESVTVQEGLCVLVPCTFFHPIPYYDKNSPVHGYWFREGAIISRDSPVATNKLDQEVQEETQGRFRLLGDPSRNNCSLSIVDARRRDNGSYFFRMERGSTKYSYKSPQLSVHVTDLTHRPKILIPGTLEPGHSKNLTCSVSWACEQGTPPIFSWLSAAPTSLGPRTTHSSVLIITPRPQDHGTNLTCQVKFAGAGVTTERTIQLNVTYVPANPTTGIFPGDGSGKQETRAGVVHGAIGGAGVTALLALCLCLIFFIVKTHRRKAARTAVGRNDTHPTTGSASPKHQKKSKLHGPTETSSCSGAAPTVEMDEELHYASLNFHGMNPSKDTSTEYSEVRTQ"}, "human CD33 Y233A (human)": {"molecular_target": "human CD33 Y233A (human) (UniProt P20138)", "sequence (P20138 18-364 Y233A limits assumed)": "as the sequence (P20138 18-364 Q236A limits assumed) above, with Y216A, A219Q counted along it"}, "human CD33 T239A (human)": {"molecular_target": "human CD33 T239A (human) (UniProt P20138)"}, "human CD33 G218A (human)": {"molecular_target": "human CD33 G218A (human) (UniProt P20138)"}, "human CD33 R225A (human)": {"molecular_target": "human CD33 R225A (human) (UniProt P20138)"}, "human CD33 G266A (human)": {"molecular_target": "human CD33 G266A (human) (UniProt P20138)", "sequence (P20138 18-364 G266A limits assumed)": "as the sequence (P20138 18-364 Q236A limits assumed) above, with A219Q, G249A counted along it"}, "human CD33 L229A (human)": {"molecular_target": "human CD33 L229A (human) (UniProt P20138)", "sequence (P20138 18-364 L229A limits assumed)": "as the sequence (P20138 18-364 Q236A limits assumed) above, with L212A, A219Q counted along it"}, "human CD33 D205A (human)": {"molecular_target": "human CD33 D205A (human) (UniProt P20138)", "sequence (P20138 18-364 D205A limits assumed)": "as the sequence (P20138 18-364 Q236A limits assumed) above, with D188A, A219Q counted along it"}, "human CD33 Q213A (human)": {"molecular_target": "human CD33 Q213A (human) (UniProt P20138)"}, "human CD33 N230A (human)": {"molecular_target": "human CD33 N230A (human) (UniProt P20138)"}, "human CD33 G263A (human)": {"molecular_target": "human CD33 G263A (human) (UniProt P20138)"}, "human CD33 N237A (human)": {"molecular_target": "human CD33 N237A (human) (UniProt P20138)"}, "human CD33 T200A (human)": {"molecular_target": "human CD33 T200A (human) (UniProt P20138)", "sequence (P20138 18-364 T200A limits assumed)": "as the sequence (P20138 18-364 Q236A limits assumed) above, with T183A, A219Q counted along it"}, "human CD33 V257A (human)": {"molecular_target": "human CD33 V257A (human) (UniProt P20138)"}, "human CD33 Q204A (human)": {"molecular_target": "human CD33 Q204A (human) (UniProt P20138)"}, "human CD33 R202A (human)": {"molecular_target": "human CD33 R202A (human) (UniProt P20138)"}, "human CD33 I199A (human)": {"molecular_target": "human CD33 I199A (human) (UniProt P20138)"}, "human CD33 T253A (human)": {"molecular_target": "human CD33 T253A (human) (UniProt P20138)"}, "human CD33 S248A (human)": {"molecular_target": "human CD33 S248A (human) (UniProt P20138)"}, "human CD33 V267A (human)": {"molecular_target": "human CD33 V267A (human) (UniProt P20138)"}, "human CD33 P235A (human)": {"molecular_target": "human CD33 P235A (human) (UniProt P20138)"}, "human CD33 F216A (human)": {"molecular_target": "human CD33 F216A (human) (UniProt P20138)"}, "human CD33 T226A (human)": {"molecular_target": "human CD33 T226A (human) (UniProt P20138)"}, "human CD33 I262A (human)": {"molecular_target": "human CD33 I262A (human) (UniProt P20138)", "sequence (P20138 18-364 I262A limits assumed)": "as the sequence (P20138 18-364 Q236A limits assumed) above, with A219Q, I245A counted along it"}, "human CD33 R254A (human)": {"molecular_target": "human CD33 R254A (human) (UniProt P20138)"}, "human CD33 H259A (human)": {"molecular_target": "human CD33 H259A (human) (UniProt P20138)"}, "human CD33 G241A (human)": {"molecular_target": "human CD33 G241A (human) (UniProt P20138)", "sequence (P20138 18-364 G241A limits assumed)": "as the sequence (P20138 18-364 Q236A limits assumed) above, with A219Q, G224A counted along it"}, "human CD33 Q251A (human)": {"molecular_target": "human CD33 Q251A (human) (UniProt P20138)"}, "human CD33 V214A (human)": {"molecular_target": "human CD33 V214A (human) (UniProt P20138)"}, "human CD33 E224A (human)": {"molecular_target": "human CD33 E224A (human) (UniProt P20138)"}, "human CD33 G247A (human)": {"molecular_target": "human CD33 G247A (human) (UniProt P20138)"}, "human CD33 N209A (human)": {"molecular_target": "human CD33 N209A (human) (UniProt P20138)"}, "human CD33 V196A (human)": {"molecular_target": "human CD33 V196A (human) (UniProt P20138)"}, "human CD33 T240A (human)": {"molecular_target": "human CD33 T240A (human) (UniProt P20138)"}, "human CD33 T268A (human)": {"molecular_target": "human CD33 T268A (human) (UniProt P20138)"}, "human CD33 I198A (human)": {"molecular_target": "human CD33 I198A (human) (UniProt P20138)"}, "human CD33 A255S (human)": {"molecular_target": "human CD33 A255S (human) (UniProt P20138)"}, "human CD33 G249A (human)": {"molecular_target": "human CD33 G249A (human) (UniProt P20138)"}, "human CD33 L210A (human)": {"molecular_target": "human CD33 L210A (human) (UniProt P20138)", "sequence (P20138 18-364 L210A limits assumed)": "as the sequence (P20138 18-364 Q236A limits assumed) above, with L193A, A219Q counted along it"}, "human CD33 T232A (human)": {"molecular_target": "human CD33 T232A (human) (UniProt P20138)", "sequence (P20138 18-364 T232A limits assumed)": "as the sequence (P20138 18-364 Q236A limits assumed) above, with T215A, A219Q counted along it"}, "human CD33 L270A (human)": {"molecular_target": "human CD33 L270A (human) (UniProt P20138)"}, "human CD33 G260A (human)": {"molecular_target": "human CD33 G260A (human) (UniProt P20138)"}, "human CD33 V234A (human)": {"molecular_target": "human CD33 V234A (human) (UniProt P20138)", "sequence (P20138 18-364 V234A limits assumed)": "as the sequence (P20138 18-364 Q236A limits assumed) above, with V217A, A219Q counted along it"}, "human CD33 I227A (human)": {"molecular_target": "human CD33 I227A (human) (UniProt P20138)"}, "human CD33 G245A (human)": {"molecular_target": "human CD33 G245A (human) (UniProt P20138)"}, "human CD33 A261S (human)": {"molecular_target": "human CD33 A261S (human) (UniProt P20138)"}, "human CD33 G207A (human)": {"molecular_target": "human CD33 G207A (human) (UniProt P20138)", "sequence (P20138 18-364 G207A limits assumed)": "as the sequence (P20138 18-364 Q236A limits assumed) above, with G190A, A219Q counted along it"}, "human CD33 K250A (human)": {"molecular_target": "human CD33 K250A (human) (UniProt P20138)"}, "human CD33 T208A (human)": {"molecular_target": "human CD33 T208A (human) (UniProt P20138)", "sequence (P20138 18-364 T208A limits assumed)": "as the sequence (P20138 18-364 Q236A limits assumed) above, with T191A, A219Q counted along it"}, "human CD33 G256A (human)": {"molecular_target": "human CD33 G256A (human) (UniProt P20138)", "sequence (P20138 18-364 G256A limits assumed)": "as the sequence (P20138 18-364 Q236A limits assumed) above, with A219Q, G239A counted along it"}, "human CD33 T211A (human)": {"molecular_target": "human CD33 T211A (human) (UniProt P20138)"}}}
{"substance": "Refmab #7 (WM53) (antibody)", "values": [{"measurement": "Mean % WT Binding", "setting": "human CD33 A269S (human)", "value": 118, "unit": "% WT binding"}, {"measurement": "Mean % WT Binding", "setting": "human CD33 P203A (human)", "value": 113, "unit": "% WT binding"}, {"measurement": "Mean % WT Binding", "setting": "human CD33 Q236A (human)", "value": 94.3, "unit": "% WT binding"}, {"measurement": "Mean % WT Binding", "setting": "human CD33 Y233A (human)", "value": 109, "unit": "% WT binding"}, {"measurement": "Mean % WT Binding", "setting": "human CD33 T239A (human)", "value": 112, "unit": "% WT binding"}, {"measurement": "Mean % WT Binding", "setting": "human CD33 G218A (human)", "value": 123, "unit": "% WT binding"}, {"measurement": "Mean % WT Binding", "setting": "human CD33 R225A (human)", "value": 99.8, "unit": "% WT binding"}, {"measurement": "Mean % WT Binding", "setting": "human CD33 G266A (human)", "value": 110, "unit": "% WT binding"}, {"measurement": "Mean % WT Binding", "setting": "human CD33 L229A (human)", "value": 114, "unit": "% WT binding"}, {"measurement": "Mean % WT Binding", "setting": "human CD33 D205A (human)", "value": 0.8, "unit": "% WT binding"}, {"measurement": "Mean % WT Binding", "setting": "human CD33 Q213A (human)", "value": 103, "unit": "% WT binding"}, {"measurement": "Mean % WT Binding", "setting": "human CD33 N230A (human)", "value": 100, "unit": "% WT binding"}, {"measurement": "Mean % WT Binding", "setting": "human CD33 G263A (human)", "value": 104, "unit": "% WT binding"}, {"measurement": "Mean % WT Binding", "setting": "human CD33 N237A (human)", "value": 116, "unit": "% WT binding"}, {"measurement": "Mean % WT Binding", "setting": "human CD33 T200A (human)", "value": 97.6, "unit": "% WT binding"}, {"measurement": "Mean % WT Binding", "setting": "human CD33 V257A (human)", "value": 124, "unit": "% WT binding"}, {"measurement": "Mean % WT Binding", "setting": "human CD33 Q204A (human)", "value": 117, "unit": "% WT binding"}, {"measurement": "Mean % WT Binding", "setting": "human CD33 R202A (human)", "value": 104, "unit": "% WT binding"}, {"measurement": "Mean % WT Binding", "setting": "human CD33 I199A (human)", "value": 115, "unit": "% WT binding"}, {"measurement": "Mean % WT Binding", "setting": "human CD33 T253A (human)", "value": 112, "unit": "% WT binding"}, {"measurement": "Mean % WT Binding", "setting": "human CD33 S248A (human)", "value": 113, "unit": "% WT binding"}, {"measurement": "Mean % WT Binding", "setting": "human CD33 V267A (human)", "value": 92.6, "unit": "% WT binding"}, {"measurement": "Mean % WT Binding", "setting": "human CD33 P235A (human)", "value": 112, "unit": "% WT binding"}, {"measurement": "Mean % WT Binding", "setting": "human CD33 F216A (human)", "value": 112, "unit": "% WT binding"}, {"measurement": "Mean % WT Binding", "setting": "human CD33 T226A (human)", "value": 99.1, "unit": "% WT binding"}, {"measurement": "Mean % WT Binding", "setting": "human CD33 I262A (human)", "value": 119, "unit": "% WT binding"}, {"measurement": "Mean % WT Binding", "setting": "human CD33 R254A (human)", "value": 126, "unit": "% WT binding"}, {"measurement": "Mean % WT Binding", "setting": "human CD33 H259A (human)", "value": 119, "unit": "% WT binding"}, {"measurement": "Mean % WT Binding", "setting": "human CD33 G241A (human)", "value": 131, "unit": "% WT binding"}, {"measurement": "Mean % WT Binding", "setting": "human CD33 Q251A (human)", "value": 108, "unit": "% WT binding"}, {"measurement": "Mean % WT Binding", "setting": "human CD33 V214A (human)", "value": 120, "unit": "% WT binding"}, {"measurement": "Mean % WT Binding", "setting": "human CD33 E224A (human)", "value": 126, "unit": "% WT binding"}, {"measurement": "Mean % WT Binding", "setting": "human CD33 G247A (human)", "value": 123, "unit": "% WT binding"}, {"measurement": "Mean % WT Binding", "setting": "human CD33 N209A (human)", "value": 128, "unit": "% WT binding"}, {"measurement": "Mean % WT Binding", "setting": "human CD33 V196A (human)", "value": 117, "unit": "% WT binding"}, {"measurement": "Mean % WT Binding", "setting": "human CD33 T240A (human)", "value": 121, "unit": "% WT binding"}, {"measurement": "Mean % WT Binding", "setting": "human CD33 T268A (human)", "value": 148, "unit": "% WT binding"}, {"measurement": "Mean % WT Binding", "setting": "human CD33 I198A (human)", "value": 111, "unit": "% WT binding"}, {"measurement": "Mean % WT Binding", "setting": "human CD33 A255S (human)", "value": 121, "unit": "% WT binding"}, {"measurement": "Mean % WT Binding", "setting": "human CD33 G249A (human)", "value": 114, "unit": "% WT binding"}, {"measurement": "Mean % WT Binding", "setting": "human CD33 L210A (human)", "value": 98.6, "unit": "% WT binding"}, {"measurement": "Mean % WT Binding", "setting": "human CD33 T232A (human)", "value": 95.3, "unit": "% WT binding"}, {"measurement": "Mean % WT Binding", "setting": "human CD33 L270A (human)", "value": 99.8, "unit": "% WT binding"}, {"measurement": "Mean % WT Binding", "setting": "human CD33 G260A (human)", "value": 87.2, "unit": "% WT binding"}, {"measurement": "Mean % WT Binding", "setting": "human CD33 V234A (human)", "value": 98.6, "unit": "% WT binding"}, {"measurement": "Mean % WT Binding", "setting": "human CD33 I227A (human)", "value": 101, "unit": "% WT binding"}, {"measurement": "Mean % WT Binding", "setting": "human CD33 G245A (human)", "value": 122, "unit": "% WT binding"}, {"measurement": "Mean % WT Binding", "setting": "human CD33 A261S (human)", "value": 102, "unit": "% WT binding"}, {"measurement": "Mean % WT Binding", "setting": "human CD33 G207A (human)", "value": 104, "unit": "% WT binding"}, {"measurement": "Mean % WT Binding", "setting": "human CD33 K250A (human)", "value": 118, "unit": "% WT binding"}, {"measurement": "Mean % WT Binding", "setting": "human CD33 T208A (human)", "value": 102, "unit": "% WT binding"}, {"measurement": "Mean % WT Binding", "setting": "human CD33 G256A (human)", "value": 106, "unit": "% WT binding"}, {"measurement": "Mean % WT Binding", "setting": "human CD33 T211A (human)", "value": 98.1, "unit": "% WT binding"}]}
